Consider 47 sequences from the NTF2 design screens of Basanta et al. (2020).

A short description of the series: protease stability score; higher = more stable; yeast display proteolysis, trypsin and chymotrypsin.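 Also: relative to predicted unfolded state with 0 unfolded-like and 1 meaning tenfold more protease.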
Turning to “NKMDEYAYKMLELWLEAFLTGDFEFIEKNLDPHVRSRINGVELIGRHLYLEMVRREMEEIRVKDVHPRRVEIIDGVVHFHGEWNGQVNGRETHKEHEVEIIVVNGRLKSVIFRIR”, the protease stability score was found to be 1.27.

For the sequence “DETERLAEKWYRHWLHLILTGDWELLEKQADPHYKFHVGDKVFIGRELASEWLRHLYEHIRIDDMKITHLDLQGDKINNDGRMRVTQGEKHKEVSVDLHMIVVNGKMHEIRIRTH”, the protease stability score is 1.45. With “DDWHEEMREMLELLLRALFTGDEKHLVENLDPNVKIIFDGKDLHGRRDASKLIHEYGVDHITRHKIHDSKFFNGRLDVDGIFDQTVNGRREEVHRRIILLKFDGRWWIHRIEIR” the figure was 1.63; with “DKEEELMKTFSQLFEHWVETGDETEMLQNADPHAKSRFNGREIHGREDIVELLKRIIDQADHHEVHTDKVKVVGDKIHINSSFHIHIGEFTIRLHYELIVDKINGRWILKEVRLG”, 0.927; with “DEDEKILEKYIRIETRALKTGNEEERENLADPNTKIDVNGVKIHGMEDWSRKLLKWLRDHGATNDLKFERIKFQGEKVILDGRLHVHYNGVDLEIETIIYFTKYNGKWILKSMEVI”, 0.229.

The sequence “SEDEEHSRIFVQLFQRAVETGDEDRMLQLMDPDARVHIGDKTYHGMFQFVRWLHDQLKRFKNIRIEWRLTEIDVFENHIIIKGELRLKAEGVDHIHNVIIYVNKINGRWIVHHMEIR” gave a protease stability score of 1.52. Regarding “DETHELIEFLLKEMIEAWKTGNEEKIMELFDPNVRLDIGDKHYHGREEVVRAMHEYRRRLGAKHITLHDHSVVNGVIHIDTVVNQGDKEVTIHIHIHIVDGKIKRIEIRLK”, the protease stability score worked out at 2.07. Take “SETDEDFKRLVEEFIRLFLTGDEDQLLELHDPNTRVEVGDFEEHGMEKWSRFLEEERRRVKGLKLVREDEKIEVQGNKLHLILHGAIEFDGVRLFTRIIVHAEKVNGKWVIRRFKMETR”: the protease stability score turned out to be 1.54. On to “SEEDRYDKKMLERLNEAEHTGDWRLFLRQADPDPRTVIGDKELHGWEILEEFLLKIHEQYKGMRFEYRDIDVQGDKIRIEYDLFINGKFTETILIADKVNGKWIIKSHELR”, for which the protease stability score was 0.898. “DEHTEHSKKLADLIMEWLKTGNEEILRKRMDPNTKIHIEVDGREENTHGWEEFERWLKELGIKHFELKHVHIQGDKSFVDGTLEVNGQRRRIIFIFIVVDGRIQSIRVIVI” showed a protease stability score of 2.12. For “SEDEELMRRAEDFIIETWETGDWELLHHLADPRVQLDINGRTEHGRENMNEALRRWLDDLGFDHHRVRKKHVIDGRVILDFEIFQGDKEVHLHLHNVVVNGRMKSVHFKLQDN” the value was -0.052; for “SEDEKLMEHAFRQLLRDLETGDWHSFHHLADPTVKLDIDGREIHGRESATRVLEELWRKFGVTRVESELHSMHSQGDKLRVESKMNFNGVEYSVIIIMIKIDGRWLLHSENHK”, 1.56. The sequence “DEVEKIVYDFLQRHIEHLLTGDEDSFTHNLDPHVRIHIDGQRLIGREDARREVRRLGFDHVEITKIEHQGEKLIVHGTMIINGQEIHLTIYIWKINGRWVVQSIEIK” showed a protease stability score of 0.706.

As to “DEDTHMVERALTLLYKTLHTGDEDLYRELIDPHVRVEINGQELIGRELLIEWFREMVERFPNIRIEIHDIRLFDGRLESDSRLHYGDKSREVHLIARKVNGQWRLESLKVE”, the protease stability score came out at 1.41. As to “DEDKQHAEKVWRLFSKFVNTGDEESLNRLFDPDVKLRVGDKEFHGREEFVKFMSELYRRIDHVHWHFSHIEVVGEYIIIHGHTIFEVGDKKDSRDTRLIMFKVNGRWHIHHIRIE”, the protease stability score came out at 2.33. For “DELKKMLKEMEEFHTDLLETGDFEKIIRNVDPHVRIDVNGQEHHGWHEAVEFIREFIERFKNVKIIIEHVEIQGDKLILHMEFRQGEFHSRLIVYSLKVNGRWILKDMEIR”, the protease stability score stood at 1.67.

Sequence “DEDHKLAEHFIRLLSEKIETGDEDSYKEMVDPNVRIEIGDKEYHGRDEATRVMKEIRERVKNMRIEIHEIHIQGDKVHVRRIDKVGDKEIEKHLIVLKFDGRWVIERERVH” gave a protease stability score of 1.19. In the case of “SEEEKRNHEIAKKFIEAFETGDEDFVNHMADPHVKIIVDGVELHGRDQLHHVRKWLEERYPNVRWHLDDMRVQGNKVFLETTLHVGDKTRKSEIILIVINGRLKEIEMRIR”, the protease stability score stood at 1.92. Consider “DEDEERVREFFELFFKALFTGDEEELKRLLDPHVKLIINGREFVGREQMTRLLNEIRVSWTELRIRRIERQGDKVIFDAEVHVERHQGDYHEQKTIKVILYMRKVDGRWLLESIEIR”, for which the protease stability score is 2.38. As for “SEEFEIYKRASELLAHLMLTGDFDTMNKLMDPNVRLDVDGVDFHGRELVNRKFQHMRIEHTHIERVIWIGDKVHVHTTMTGNIDGRRDERKMEIVSHKVDGRWHVHSVIIL”, the protease stability score stood at 1.12. For “DEEQELTEMVFRIIKRLNETGNEEELRRNADPHVRLDWNGVHYHGREVYDHVWNMLGFEIKDTRIRDIRMQGEKIFVDGERRGNINGRTIDTRIIIIIIAVNGRMKEIVIRDL”, the protease stability score came to 1.3.

Sequence “NEEEKIIKKDIEKEITAWETGDFDTLDHLLDPHARMDINGKDLHGREVLKTHFHEEWNRLGLEKVEIHIQDFRVIDGRVHIDGYMNVNGRHQKVRFIARKVNGRWIIHEVEFR” had a protease stability score of 1.32. “SEDDEELEEAARRTLKIIRTGDEDLYTRLADPHDKMQIDGVETHGMEEISRWLKEHRDRFKGLKMIERRIRVTSIDGQVRVHIDTELRVDGVTQRVELNWIASKVDGRWRLERVEFIIR” had a protease stability score of 0.745. In turn, “SEDEETVHEWFEVLRRDWATGNEENLMKLLDPHARLIIDGRELHGREHIIEFLRRHREHLGVTNIHVEFHIDNRKIFNGKVEVKGTLTIRINGKEEEREVILIIEKIDGRWYIKNLEIR” came in with a protease stability score of 0.552. As for “DEDEEKKDEARRLWEENLMTGDEETLFRLADPHVRTVINGVEFHGREEMLKAIRWLRHDLGAKHIDSIHIDSVTIQGDFVIVHGHLRFSIGDKRTDSEVHLHVLKVDGKWYVHEVNIN”, the protease stability score is -0.183. “SEDIEHVEEALEMFRETLITGDEEIIRRLIDPHVRIIINGREYHGREAMDHFMKRFDVIHNLHITHWEDINGRMHVHGRIEGNIDGKTDVIETRILVVKVDGQWWFETIRIG” showed a protease stability score of 2.27. With “DEEMQLAEEMSRKFLHNWHTGDWRIMSHLIDPDVKIIIVVGDKRIELHGRENFVKEIIRWLHHLRETDRRVDHLRIQGDKAHVRVTVHVRYGDKTMDLDEDIRILVVNGKIHSIEIIQV” the figure was 1.02; with “DEETRMSEHAERLLIRSIRTGDFEEITRLADPHVRVHIGDKDIHGRESLSEVLEKTMRKFGVDNVDYKIEDSHTYDGRIDIRGRLEVNGVKREVRFHSLKIDGRWLLTHVEMD”, -0.04.

For the sequence “DEHTSRLERLAHLFFESWITGDFDALLKYLDPNVRIEQGDKHIHGREVMFEHLERLLKHWWFHEHRLRDVKSVNGVSHLHVHQRNEINGVELRYDFHIHLYIVDGRLKSMEFRIS”, the protease stability score came to 1.07.

On to “DEKQVLELIRDVMKHVQNGNQEEVKKHGKPSVEVILFNERYTGPEALVRLAEFAQKLGAQFEYKETRHEGNKVKTKVEVTFGGTTVRYEVEVEAEGGKVVKWEVRASDEFDERVKKS”, for which the protease stability score stood at 1.29. The sequence “TEDEELSHEIFEIWERVRRTGDEHTLERLADPNMRVHIDGQDYHGREMLFEFLNRFKGLKSDIHDMRIEIVGDYIILNIKVHITVNGREIHLTIHLHSRKFNGKWHLKELEIRKI” displayed a protease stability score of 1.32. In the case of “DEKEETIERLIRMLWHAWRTGDEDSLRNLFDPHAKLHVDGRDLVGMEMVYEDFHRQLNEWRINDLVIRTFRVQGDKIEIKGEIFGDINGRHTRHEVIIHIVVVDGRIKSLEVIND”, the protease stability score came to 1.66. For the sequence “HETEQRLEHHIKLWFKAFMTGDEELLKFLADPNVRVDDDVNGVRFLNIGMEKLAEWLRKWLRRVPNVKFDLEDVKIFENRTHIDSRLDIDGKEIELHIHLILINGRIQEIRFSVK”, the protease stability score stood at 1.49.

With “DHRDEVFEELVRLIIHFLETGDWKSLEELADPNVRVTVFYNGRQDNNIGRKQWAEAWERLLHLLGIKHHHMHRYHIQGDKIHIIMNFVVNGQEFTVHIDITVFNGRMKSSRIHVE”, the protease stability score is 1.27. In turn, “DDEEKLSKDASELWKKSMLTGDEDTLMKLADPHTRLEIRIGDKTDEIHGMEWVAHLLTNLGIDHFILRDEHIQGEKVIIRGEIDINGRTHESIIIVIIINGRLKSVTFIKL” came in with a protease stability score of 0.94.

In turn, “DEDEQELRDALERWIRAMYTGDEKTLRDLIDPNVLIDINGKIIHGRHKLSQHLREIRIHHFEMHIEDYRFQGDKVHMDVREKRHWVIGDKHIDESRSVTLIIVKFDGRWLMHRVIVH” gave a protease stability score of 1.19. Take “SEDERLVRHALNELLHHIETGDEERLIKLIDPNYRISINGQELHGWEEYVRLIREWRIRRFRVKDVDVQGDKANLDVRTHGDIDGQHHDFTIKIIATKINGRWINEEIIVE”: the protease stability score was found to be 2.4. For “SEEEEAEREFWEEFLRTSRTGDEELFEELIDPNVKIDINGRDLHGMEEALDTFRELRIKDIKVKHVEEQGDKIILDGRVDGIFDGKYDRVEVTFFVLKIDGRWVYHSIRLE” the value was 1.13; for “REEEEYRHHVLRRWLEIWETGDEEAEAKNVDPNARMHVNGVDLHGRETIIHFLEEYMRKVKGVQERNDKVHLQGEFTHLTGRVLINGRWKEVTIQLLIINGRHHYLRIIIE”, 0.898.

“DEHHETLKRMTDQTLHVIHTGDEETWNQLADPNTLIRIIFENREINIHGWHLVVRWLQHLHRELRIEIDIRDIEIQGNKVHVEGELHVHQGEKEINIRIIFHFIVVNGRLRDVTIDFR” came in with a protease stability score of 1.3. Turning to “SEEEKELRFVYDLLWHLLKTGDEEITRELADPRVRIDIDGKEWHGRDELARLFDRLHRELGYTVHRTRHHRHDFINGQWHEDGETKGVIGDKEFETHVKIIIIVINGRLKEVIFHYH”, the protease stability score was 1.16. With “DEHEEDWRHVLKTLEDVMRTGDPHLFSHLADPHVRLRIDGRDHIGMELMWEILHKYKNITIEIEHSRVQGDKIEIRGTLDVDGRRYHVTIFADKINGKWIHREMEVT” the figure was 1.18. On to “SEDERDISEVLEEISRIWKTGDEKRFRDLADPNVKMVVNGRELHGRDFAIEAWRKFRELYGIKHIRTVQVNSIDIQGDKVHVDTSMDGQQGEKRTVLRSEIIMLKVDGRWHLESMSFG”, for which the protease stability score came to 1.72. With “DEHQERNRRALEEMNRILDTGDWEELTELADPHVRIHYGEFNLHGREDAHRFWKHIVERFKGIRVNIHDVKMVGNYVDVDGHLEIGDKEHKVRIIAFKINGRWLLHSMHFV” the figure was 1.38; with “NETEELLRRMIEDNLRAMLTGDEERIRKLADPNVRNHINGRTHVGREELAHVFHRIFEEWRIDHMTLRDSDTQGEFIILHYIFDIRFDGRRQELEVEIIFYKIDGRWILHKITFK”, 0.75. Take “SEEDEMAEEMMRWFLEILETGNEELFNHYADPNVIDIVGDKRVHGMDRFSELHHIFLRHWRIHRRRENTIETYNGRAHIDGEIEGKVNGREKNIRVEIKLNVVNGVIKKVEVTYN”: the protease stability score amounted to 0.379. “DEKERLADEILEDIRKSVHTGDWDEYLRLLDPNVRTVINGKTVHGREEIKELMERLGIDHHHLRVDHWEIIDGKVHVEIEVTLQIGDKHFSRSSHILIMKFNGQWIVHTFRLH”: the protease stability score was 1.73.
